Measurements: patent US20150132254A1 (MIT, published 2015)
Numbering of substitutions follows the chain as printed. Names and notes keep the numbering of the source.

T1: soluble murine CD25 (His-tagged recombinant mouse IL-2Rα/CD25, R&D Systems) (mouse, UniProt P01590 22-236, limits assumed)
T1 construct: Bought reagent, described only as soluble and His-tagged; also called soluble CD25; mouse CD25
T1 sequence (looked up): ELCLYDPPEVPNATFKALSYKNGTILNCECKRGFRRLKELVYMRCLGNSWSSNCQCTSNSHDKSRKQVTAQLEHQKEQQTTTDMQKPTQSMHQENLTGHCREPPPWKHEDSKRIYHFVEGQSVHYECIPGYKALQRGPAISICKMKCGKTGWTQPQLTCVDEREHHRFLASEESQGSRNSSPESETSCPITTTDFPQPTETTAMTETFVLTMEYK

B1: wild-type murine IL-2 (yeast-displayed) (ligand)
chain: APTSSSTSSSTAEAQQQQQQQQQQQQHLEQLLMDLQELLSRMENYRNLKLPRMLTFKFYLPKQATELKDLQCLEDELGPLRHVLDLTQSKSFQLEDAENFISNIRVTVVKLKGSDNTFECQFDDESATVVDFLRRWIAFCQSIISTSPQ
notes: Aga2p fusion with HA and c-myc tags; also called mIL-2; mouse IL-2
B2: mouse IL-2 E76R (yeast-displayed) (ligand)
chain: B1 chain with E76R
notes: also called E76 mutant
B3: mouse IL-2 E76F (yeast-displayed) (ligand)
chain: B1 chain with E76F
notes: also called E76 mutant
B4: mouse IL-2 E76G (yeast-displayed) (ligand)
chain: B1 chain with E76G
notes: also called E76G IL-2
B5: mouse IL-2 E76A (yeast-displayed) (ligand)
chain: B1 chain with E76A
notes: also called E76A IL-2
B6: D265AFc/IL-2 (monovalent mouse IgG2a D265A Fc / wild-type mouse IL-2 heterodimer) (Fc fusion)
chain 1: EPRVPITQNPCPPLKECPPCAAPDLLGGPSVFIFPPKIKDVLMISLSPMVTCVVVAVSEDDPDVQISWFVNNVEVHTAQTQTHREDYNSTLRVVSALPIQHQDWMSGKEFKCKVNNRALPSPIEKTISKPRGPVRAPQVYVLPPPAEEMTKKEFSLTCMITGFLPAEIAVDWTSNGRTEQNYKNTATVLDSDGSYFMYSKLRVQKSTWERGSLFACSVVHEGLHNHLTTKTISRSLGKGGGSAPTSSSTSSSTAEAQQQQQQQQQQQQHLEQLLMDLQELLSRMENYRNLKLPRMLTFKFYLPKQATELKDLQCLEDELGPLRHVLDLTQSKSFQLEDAENFISNIRVTVVKLKGSDNTFECQFDDESATVVDFLRRWIAFCQSIISTSPQHHHHHH
chain 2: EPRVPITQNPCPPLKECPPCAAPDLLGGPSVFIFPPKIKDVLMISLSPMVTCVVVAVSEDDPDVQISWFVNNVEVHTAQTQTHREDYNSTLRVVSALPIQHQDWMSGKEFKCKVNNRALPSPIEKTISKPRGPVRAPQVYVLPPPAEEMTKKEFSLTCMITGFLPAEIAVDWTSNGRTEQNYKNTATVLDSDGSYFMYSKLRVQKSTWERGSLFACSVVHEGLHNHLTTKTISRSLGKGGGSDYKDDDDK
notes: also called D265A Fc/wt mIL-2
B7: mIL-2 QQ 6.2-8 (yeast-displayed) (ligand)
chain: APTSSSTSSSTAEAQQQQQQQQHLEQLLMDLQELLSRMEDHRNLRLPRMLTFKFYLPKQATELEDLQCLEDELEPLRQVLDLTQSKSFQLEDAENFISNIRVTVVKLKGSDNTFECQFDDEPATVVDFLRRWIAFCQSIISTSPR
notes: Selective-reversion mutant of a library 6.2 clone; also called reversion mutant
B8: mIL-2 QQ 6.2-11 (yeast-displayed) (ligand)
chain: APTSSSTSSSTAEAQQQQQQQQQHLEQLLMDLQELLSRMEDSRNLRLPRMLTFKFYLPEQATELKDLQCLEDELEPLRQVLDLTQSKSFQLEDAENFISNIRVTVVKLKGSDNTFECQFDDEPATVVDFLRRWIAFCQSIISTSPQ
notes: as for B7
B9: mIL-2 QQ 6.2-10 (yeast-displayed) (ligand)
chain: B1 chain with N44D, Y45H, K49R, K62E, K68E, G78E, H82Q, S126P
notes: also called reversion mutant
B10: mIL-2 QQ 6.2-13 (yeast-displayed) (ligand)
chain: B1 chain with N44D, Y45H, K49R, K62E, G78E, H82Q, S126P
notes: as for B7
B11: mIL-2 QQ 6.2-4 (yeast-displayed) (ligand)
chain: B1 chain with N44D, Y45S, K49R, K68E, G78E, H82Q, S126P, D131G
notes: as for B7

target: T1, soluble murine CD25 (His-tagged …); experiment: yeast surface display, flow cytometry
Procedure: EBY100 yeast harboring each of these clones were grown and induced as described (Chao et al. Nat Protocols 2006; 1(2):755-768). CD25 binding capacity was determined by labeling induced yeast with 50 nM soluble murine CD25 (R&D Systems). Proper protein folding was determined by labeling yeast displaying IL-2 variants before and after thermal denaturation with anti-mouse IL-2 antibodies. […] Anti-mouse IL-2 antibodies used were S4B6 (gift of Jianzhu Chen Lab, MIT), JES6-1A12, and JES6-5H4 (eBioscience).

binding result	Binder
binds	B1
no binding (tested: 50 nM)	B4
no binding (tested: 50 nM)	B5

Binder	binding result
B2	no binding (tested: 5 or 50 nM soluble CD25)
B3	no binding (tested: 5 or 50 nM soluble CD25)

target: T1, soluble murine CD25 (His-tagged …); experiment: not stated (legend of the schematic FIG. 5)

Kd	Binder
~50 nM	B6

target: T1, soluble murine CD25 (His-tagged …); experiment: yeast surface display, titration with soluble murine CD25
Procedure: The equilibrium dissociation constant of any particular clone was determined essentially as described (75). […] For picomolar affinity mutants of library 6.2, non-displaying EBY100 cells were spiked in at 90:10 to facilitate pelleting the low numbers of displaying cells. The equilibrium dissociation constant Kd was determined by fitting CD25 concentration and flow cytometry fluorescence data to the monovalent binding isotherm: […]

binding result	Binder
binds	B7
binds	B8
binds	B9
binds	B10
binds	B11
